Assay results: the supplement of paper PMC12636428

System: Saccharomyces cerevisiae
Assay: transcriptional activation domain activity (GFP:mCherry ratio, weighted mean of sorted bins, harmonized to initial dataset scale) (arbitrary fluorescence ratio units); higher = stronger transcriptional activation
Conditions: beta-estradiol 1 µM; induction time 4 h
Method in brief: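 Barcoded protein tiles fused to an estradiol-inducible synthetic transcription factor were integrated at the yeast URA3 locus, in diploids carrying a GFP reporter. Cultures were diluted 1:5 into SC with 1 uM beta-estradiol, held 4 hours at 30 °C, sorted into 8 bins by GFP:mCherry ratio, and barcodes sequenced. Tiles under 50 reads were discarded. Activation activity is the read-weighted mean of bin median fluorescence, averaged across barcodes, then linearly mapped onto the initial dataset scale.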

Sequence | transcriptional activation domain activity
RGSLREDESQHIATGVEGVHEARDGGRRTSNARAEKTKRVATPVCLSAAHTRG | 28600
MFKCRNRYCYGSCVDLLCYLILGLDFLWIFCFLFFKRFFFRFLLSIPFSFFPS | 64600
TDEAESKKAEEVPKTAEEAKPEESKAEETAMADETPKTEEAKPEDVKVEAHKE | 19400
YMYLVIVVTFLSILKTSQAIAVVWVQNVLFFANPDIARTLLNIAWWQNSVTLM | 54800
RPYLLLLHLLCSFFFFESISIILAIAFQLLLIRASSHMIIRMLLQVYCFLSMR | 75900
MIPLLSFYYYFYISTCKTELLFSPFIFYFLLFLYIYIKIYTYFLHTPFLLVFE | 47700
STHRIRCRNAEEPGGRARCRLVVGRRAPAGARDEVPSHFSEEELVASVVGVVV | 73000
NEGCKIITVFNGIFGIVYSFAPMCYFCLCIRVFFFALYKRHWYYHALLSLFWL | 70700
MFPGLQYTLLCIHLSCDFIICCRAFLPYYLCFSHYFPVLMCPVSPVLILVWFI | 53600
RFLFQWDLELALSLCLSHTLGIISLPYKSIFISILWLIQSSWQLLFFLFWQPL | 70400
MAMGYMRFCALAISILLFREGKELTQRGSCGCLIYVCVRLEVGYYRLVFLIGY | 54700
KQYCVRPNSGRIEPGKEVEVQVLLQAMREDPPPDARCRDKFLVQSVAMTGENE | 29400
SYFIAAIINWEMSGFFLFSYEYVHKDLNLGCSNLYFTWYALFKEYGAPLVPMS | 45100
SFCVRHKFMWPLFRTRFIPCPVVSLIVLPTLFIVAYLPQVAFLAIFQGNLAWF | 58000
MLLFYILLSFSISSFFVCSLSNMLFFYMHHLIYMLTIFFYLLFNPITPILFFV | 51300
RLNFLLFCLSLFLSLYFFPFCLLFFLFSLSSFLFCLPSFLSLLSSFFFFFVSL | 57200
RSKSSDESSSDSDSDSGSESGSDSDTSRRKRSKSKSSSRSKSKSKSSKLRARS | 10600
ALTLVDPQGVLKCRIVLFCVIRGSVMVLGWWNYKLMHRWLLPGIIQCLSNIPV | 64500
LSLVLWCCGLKKSDLAIYLAWTFLVWPGPSPIFCHLSFLLLLLAFFLLPLLSV | 78100
NAFGAYSTDPSNIAEGLNTVGFRSGFAFFFVSMGIMCLIYLVCSLRTNVCFFM | 26100
WGFRVMSQLPTFWYRTEYFWIDYPHWDMKPELKRYYLMQMAYWLQQLIVLVLG | 92400
KDNATTAAVAAASSEKDDEKKAKEENKPDDKKTEEKKAEEKKSDDTAKDDASK | 34300
TEAPKEEAAPAPVEEAPKQEEAPADAPAEEAAPAAAEEAPKETAAASPPKRGI | 47800
KLWKKPIIVVMAAMPIIMDGVGNLLIPYLHSFVLHSLLFCHKKVAFLMLLLIF | 59100
GPTIRHKMNLFHVYGRRNPHLRLMISLIYVWMRSWGVKEMSPGTLCLLLIRFF | 59800

Sequence | transcriptional activation domain activity
KSVVLERKLAIGQCRHLFTVNDNWLVSVWNDFHVGIVVRNMVFFLCRLVFDFM | 42700
LVYLARSLFFSLLFKRLYILYFLEVCIWHIFGFFFYLITLCANLVMPLLLCSV | 57600
MVLLLLLDYNVFCHFNFAVHLYLLPFINKFKRIVLGHLIFLWNYLVQVVVVSP | 67600
LVPWRPQKVLWLKVFYLLTRYLAFVDIPINLYSYLGFGISLPACQVLFSWYCW | 56100
WLLSVYILGFLAFELASVLIAIRVVAIWRRARPVLVFVVVALLTQFSFIIYLS | 23300
AVIRKIRLLVCLAREQALRGYALEMVIHGLKPFIVDSYCSQDTIGVVQYLLHR | 46700
EITNDESVEAHKEEQAVEAKEGSPEIAAEAEAEEGGAKPAEESKKPRKLIEEE | 12500
EKEEDAQLRDRHRGRHSVDRDLHRRGGRVRDRSRGERSLRNQPRAAGAGAAAG | 57600
MLAKGVWLACMFFFFFFFRLSFLNGSWCEYFYYLLCFFNSSYFFSSLSLRISF | 48300
MAPKAPEASPPKRGRGRPRKAESEKKTKAYEPTGRPRGRPKGSGGVKKSVAAT | 19600
FVTFVFCPPLLAFAHRFGRKVLKRIILALLAFHLVIVLLSSAIMSPYDELHPK | 34300
TGGISELQNALDDTRASFAYVRLQYANDKESKREKFILVIWIGKSVKVMRKAK | 40200
RDRKKRKVDGSEDSDDSDDDGTRGKGRGKSKSKGKGKSKEKKKKSSRKSKKAE | < 6570
LGLLLVVSVRIVVTLFSLFFFILLLVALGLIILIIALIVKAIIIVVYFFFFFV | 20400
MLSLFSETGCTFLLVGLSIVVGVEKGSFLFYFVYLFTLYLYCGPILLGKLIFM | 49800
MVGLVGFWVLFLFFLCPFLFSCPSPSPPLRPSLYIFQISYGSFFSCFSFLFFS | 68700
ISLGDFIVTLNYLFCYFLMQAPSLKLKPTSLFFFFLCIWLDFVLCLLILLRVA | 46400
IFVYLRIKKCCCLNKSSLLLDVRLIHKNRDTVIIFARGLVGIFKKLSLRVVEC | 51200
SLDLEILEELEKLISAQEFSRNFTEDVDESLQSEIDLMNYDNEALNQLMAIDL | 137000
CDTGILLCLVCYLSSKVLLYFFLVEKVHVIRGNNDSRWKDKLFVFNCFGMMLP | 38100
DSKSDATPAWSDLKTKAGKERKRLPLACIVCRRKKIRCSGEKPACKHCLRARI | 41900
LPDKGKSTEIMTSKLVGRHEFLPVPDFEDQIRRLYENLLISLLSDTQLLIVAW | 55800
IARADRTSPNDGGVALKKHVVVFASRPGLGLLIAAYLHKNLRSDWNIQLILGC | 66700
PIHAVYLFHLISSTFLLKYIYTYRFYFIFFLPFFLIWILCAAYWWLFFTHHIP | 54600
DVYNEGHICNHSDDEGRYAYKYQPTMILYAIRALLRSLSVLIGAEEELGNAVA | 36400

Sequence | transcriptional activation domain activity
MRHVASRWPILPRLLVPIFHLLAWFLIPVGRLCIRSFPLIFSVVCFLCAFSSC | 51100
SICCALQDWYDYFSTLSYQDTLKSNIWYSLAETEYYWLHLLLFLPHLKRYLTR | 47600
MSEPPRKRAKLACVTCNARRVKCDVTERQPCSNCIAGNALCETRESKRGKHPR | 15300
PWLLLIRYLALGTNLSMVVLTFGIFGLQWNRWISILTLRVYTMFNRKRVILWL | 61100
TKGEFHKIAVIFTSTVVAGMVIMYFWILKQIPFMVGLVVWGWVGISQGFFAVN | 55800
MCWACRILAAFPPPLPVFWFWFWFWFWFWFWFWLTAGWLAGFGFFVFAFCFLY | 32500
MISIAGFYLFFLGYWRFWMLFINLIVGLLATIGHHVSGLACLIFFCGSSVRIS | 35300
EGYDLLPFRLGCAYVVLGWYWISTTWVEAEPVSQGVKPPKDRDYFHRVKLRFD | 42200
MDPEQATDAKPPKPPVVRGARACTVCRAAKMKCVGAEDGQKPCQRCKRANVEC | 53000
SVYLHALKKVITTWKGEVLPIILARKIQWTEWEIKDLEYEITHFYVKTFFMTI | 47900
AFLCWVAPNNATANFIGAGFGGMGFLNLSLDWSNISNLYNLFLTPWWTQVVVY | 83700
GAARVQVDFWFFLFVYYGLYNLTALIWITKVFNLYSLNWWPQSLGFPLTVSLI | 61300
HSLLRGDKETGVCVIEMTPFKQGIDSGAIYGKKTVLVVFCLVKLLLSQAVPES | 28600
EAAARRERKQAAEKGENRERKRRTQGLQNNTARSQKDGDGKGEGGKDNKKDGK | 29200
MLCLGLVDVYVNFLIFQLYNFLFLFGFLRWINEFVFGFPIHCLFCVILYLLIL | 30900
PAYKLLVAAIWSLEIVDQAFIGHCVYYYTISNYMSPQVLLFGDVIWTLIIQLV | 43000
WLLQYMMLLGTLRRQSDKLVVKVGWYMANYLVPGIYVFQPRIVMKVLLLILRQ | 44500
MIIVFVFFSLFFFLPFLFPLAFFFLFLFPFFLPSYFPSYSLRCSYEGRPSFFF | 47100
GQVELFTHHTSLRHIFFRLEKLGYRLVVIQLTDSFVISQPSLYISALLLALRG | 35400
IHRLTFFFFFCFFFFFFCLFSFSVSFFFFLFFFFLFSTSLLARRFLSLFSSVA | 50100
VIHLMNMGQVSILFIHRFIYGVVPLFEIVSCSFWPLLVSLWHLDYILIYLIMF | 46300
FGLFGPLDFLDFLDLWTFWTFWTLNFLDFWTFGLFGLLALDLDFLDFLDFLDL | 57800
DEVMKIMPVQKQTRAGQRTRFKAFVVIGDSEGHVGLGVKCAKEVATAIRGAII | 59300
RQTEKPLRSVYCYLIWGEIFVCLVFSIICWCHLYGLFGGSFEFYFMILTLWAL | 33000
